Measured values reported in US20230190924A1, “ANTIGEN OF ALLERGY AND EPITOPE THEREOF” (HOYU CO., LTD., priority 2017, published 2023).
Entries after “also recorded” stand apart in the source; their conditions may differ. Each block holds one molecule with its values, some of them ahead of it.

How the values were obtained:
IgE antibodies in serum = test: ELISA of Fmoc-synthesised peptides with patient serum; format: binding, human; conditions: serum of cases having food allergies to chicken egg and soybean in combination
Experimental: The peptides of the aforementioned SEQ ID NOs were prepared by the Fmoc method and studied for their binding activity against IgE antibodies in serum by ELISA. On the basis of RXRXXKXX (SEQ ID NO: 329), the peptides of chicken egg RGREDKMK and soybean RFREDKEE were prepared, and their binding activity against IgE antibodies were confirmed by ELISA using the serum of cases having food allergies to chicken egg and soybean in combination.

[1] = test system: IgE antibody in the serum of an egg allergic patient; test: Immunoblotting of two-dimensional electrophoresis of chicken egg (raw egg) yolk proteins with patient serum; format: binding, human; conditions: for specific reaction/binding of serum IgE with spot in immunoblot: serum of egg-allergic patient 1 (food-dependent exercise-induced anaphylaxis), versus non-egg-allergic serum
Experimental: Identification of antigens by immunoblotting was carried out by taking all the steps up to the step of “Second-dimensional SDS-PAGE” as described above in Example 1, followed by the steps of “Transfer to membrane”, “Immunoblotting” and “Analysis” as described below.
Transfer to membrane was done using the following transfer system and transfer buffer. • Transfer system: XCell SureLock Mini-Cell and XCell II Blot Module (produced by Life Technologies) • Transfer buffer: NuPAGE Transfer Buffer (X20) (produced by Life Technologies), used in a form diluted 20-fold with milliQ water.
To be specific, proteins in the two-dimensional electrophoresis gels were transferred to a membrane (PVDF membrane) according to the following procedure.
(1) The PVDF membrane was immersed in 100% methanol followed by milliQ water, and then moved into the transfer buffer to hydrophilize the PVDF membrane.
(2) After sponge, filter paper, gels treated by second-dimensional SDS-PAGE, the hydrophilized PVDF membrane, filter paper, and sponge were put in place in this order, the transfer system was energized at a constant voltage of 30 V for one hour.
Immunoblotting of the membrane was carried out using, as a primary antibody, a serum sample from patient (patient 1) with an egg allergy or a serum sample from a non-egg-allergic subject. This egg-allergic patient was a patient diagnosed with food-dependent exercise-induced anaphylaxis (FDEIA) caused by chicken eggs.
Immunoblotting of the membrane was carried out according to the following procedure. • (1) The transferred membrane was shaken in a 5% skim milk/PBST solution (a PBS buffer containing 0.1% Tween 20 nonionic surfactant) at room temperature for one hour. • (2) The membrane was left to stand in a solution of 5% primary antibody serum in 5% skim milk/PBST at room temperature for one hour. • (3) The membrane was washed with a PBST solution (5 min.×3 times). • (4) The membrane was left to stand in a 1:5000 dilution of the secondary antibody, anti-human IgE-HRP (horseradish peroxidase), with a 5% skim milk/PBST solution at room temperature for one hour. • (5) The membrane was washed with a PBST solution (5 min.×3 times). • (6) The membrane was left to stand in Pierce Western Blotting Substrate Plus (produced by Thermo) for 5 minutes. […]
The immunoblots obtained with the serum from the egg-allergic patient were compared with those obtained with the control serum from the non-egg-allergic subject. By immunoblotting of the proteins contained in the raw yolk using the serum from the egg-allergic patient (FIG. 2), three spots were detected, which are different from the spots detected when the serum of the non-egg-allergic subject was used and different from those of the known chicken egg allergen proteins.
Identification of antigens by immunoblotting was carried out using the sera of three other egg-allergic patients (patient 2, patient 3 and patient 4) in the same manner as in Example 2. By immunoblotting of the proteins contained in the raw yolk using the serum from the egg-allergic patients (FIG. 4 for patient 2, FIG. 5 for patient 3, and FIG. 6 for patient 4), spots were detected, which are different from the spots detected when the serum of the non-egg-allergic subject was used and different from those of the known chicken egg allergen proteins. To be specific, spots 4 to 8 for patient 2, spots 9 and 10 for patient 3, and spot 11 for patient 4 were detected.

[2] = serum of egg-allergic patient 3

Molecule: RFREDKEE
binding activity against IgE antibodies by ELISA (IgE antibodies in serum): patient-specific binding activity was able to be confirmed

Molecule: RGREDKMK
binding activity against IgE antibodies by ELISA (IgE antibodies in serum): patient-specific binding activity was able to be confirmed

B1: Apolipoprotein B precursor [Spot 10] (protein, listed as Gallus gallus)
chain: LDGSTSLTRKRGLKLATALSLNNNKFLGGSHDNSISLTKKNLEASMITNAKINTPVFKMNFSQELSGNTKSKPTISSGLKVTYDFTTPKHGISAKGGVAHKLALETLTSYLSVETSTKGNIDGAIYTGNSFSGALDHEANTYLHANGVRSSLKLEANSKVDGLWNSEMKEILAVEASTSRVYAVWEHNGKNFARYTPLFTTTGSQKCKATFELAPWTVSADLQIQVTQPNSFLDTASVNQVVLMKVSPTDQKVGWKGEGQIQSLSLRHDMQLSNEKSNAKFDISGSLEGYMDFLKRINCAISKKSLWDILKLDVTTVADRKHYLNASASFIYRKSDDGYFFPMPVIR
specific reaction of serum IgE with spot in immunoblot [1, 2]: specifically reacted; also recorded: detected

B2: Vitellogenin-2 precursor (protein, listed as Gallus gallus)
chain: TPVLAAFLHGISNNKKTGGLQLVVYADTDSVRPRVQVFVTNLTDSSKWKLCADASVRNAHKAVAYVKWGWDCRDYKVSTELVTGRFAGHPAAQVKLEWPKVPSNVRSVVEWFYEFVPGAAFMLGFSERMDKNPSRQARMVVALTSPRTCDVVVKLPDIILYQKAVRLPLSLPVGPRIPASELQPPIWNVFAEAPSAVLENLKARCSVSYNKIKTFNEVKFNYSMPANCYHILVQDCSSELKFLVMMK
specific reaction of serum IgE with spot in immunoblot ([1]; serum of egg-allergic patient 4): specifically reacted; also recorded: detected

specific reaction/binding of serum IgE with spot in immunoblot [1]: specifically reacted
B3: Spot 3: Central sequence of vitellogenin-1, or C-terminal portion (SEQ ID NO: 18) of lipovitellin-1 (protein)
chain: DKPFASGYLKMFGQELLFGRLDKDTLQNVLQVWYGPDEKIPSIRRLISSLQTGIGRQWTKALLLSEIRCIVPTCVGFPMETSFYYSSVTKVAGNVQAQITPSPRSDFRLTELLNSNVRLRSKMSLSMAKHMTFVIGINTNMIQAGLEAHTKVNAHVPVNVVATIQMKEKSIKAEIPPCKEETNLIIVSSKTFAVTRNIEDLAASKMTPVLLPEAVPDIMKMSFDSDSASGETDNIRDRQSVEDVSSGNSFSFGHPSSGKEPFIQSMCSNASTFGVQVCIEKKSVHAAFIRNVPLYNAIGEHALRMSFKPVYSDVPIEKIQVTIQAGDQAPTK

B4: Apolipoprotein B precursor [Spot 9] (protein, listed as Gallus gallus)
chain: MGPVRLLLLLLLLSSGVLTQEGTPENGNPGCSKDAARFKSLRKYVYLYEAETSSGITGTADSRSGSKITCKVELEVPQLCQFILRTMHCSLRETFGVDSERRAMLRKSKNSDDFANAMSKHELRFSTQDGTKVKLYPEKDEPLNVLNLKRGIISALLAPTETEENIKTISMDTVYGKCDSEVEFKSRRGSVAEDISINRNLKACDNFSPIRDYVSPVAIVKGLNIPLSTLLSSTQSCHYSIDAKKKHIRDVVCSEKHLFLPSSYKNQYGMMTEVNQTLKLEDNQRMNNRNPDGDELEEKGLALESTDAK
specific reaction of serum IgE with spot in immunoblot [1, 2]: specifically reacted; also recorded: detected

specific reaction/binding of serum IgE with spot in immunoblot [1]: specifically reacted
B5: vitellogenin-3 (protein)
chain: SIIENLKARCSVSQNMITTFNGVEFNYSMPANCYHILAQDCSPELKFLVMMKRLGESADLTAISVRLASHEVDMYVSNGLIQLKINGVQTPTDVPYTSKSGLLISSEKEGLSLKAPEYGVEKLYYDRRKLEIRVAFWMVGKTCGICGKYDAEKKREYQMPSGYLAKDAVSFAQSWVISEDTCTGACKLQRKFVKIEKPVAFNKKASKCFSIEPVLRCAEGCSATRTVPVSVGFHCVPSDSTLELEEEQVRLDQKSEDLVSRVDAHTACSCAQQLCSA
